Legend:
HeLa Kyoto [1] = test: solubility in G1/S (NP-40 vs SDS abundance) (log2 ratio); higher = more soluble; conditions: cell cycle stage: G1/S
HeLa Kyoto [2] = test: solubility change mitosis vs G1/S (difference of NP-40 vs SDS log2 ratios) (log2 ratio difference); higher = more soluble in mitosis
HeLa Kyoto [3] = test: melting temperature (median over replicates), in situ; higher = more thermally stable
HeLa Kyoto [4] = test: thermal stability score vs G1/S (z-score of summed log2 fold changes over temperatures); higher = more thermally stable than in G1/S
[5] = cell cycle stage: early G1 (4.5 h after nocodazole release)
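For melting temperature (median over replicates), in situ in this document: HeLa Kyoto cells synchronized by double thymidine or nocodazole block, proteins quantified by TMT10plex mass spectrometry, three independent biological replicates.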
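For solubility change mitosis vs G1/S (difference of NP-40 vs SDS log2 ratios) in this document: synchronized HeLa Kyoto cells (double thymidine block for G1/S, nocodazole release for mitosis), protein amounts in NP-40 versus SDS lysates quantified by mass spectrometry, three biological replicates.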
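For solubility in G1/S (NP-40 vs SDS abundance) in this document: HeLa Kyoto cells arrested at G1/S by double thymidine block, proteins quantified by TMT10plex mass spectrometry in mild NP-40 versus SDS extracts, three biological replicates.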
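For thermal stability score vs G1/S (z-score of summed log2 fold changes over temperatures) in this document: synchronized HeLa Kyoto cells, proteins quantified by TMT10plex mass spectrometry, three biological replicates, mitosis taken 0.5 h after nocodazole release, G1/S directly after double thymidine block.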

Sequence | solubility in G1/S (log2) (HeLa Kyoto [1]) | solubility change mitosis (log2) (HeLa Kyoto [2]) | melting temperature (HeLa Kyoto [3]; cell cycle stage: G1/S) | melting temperature (HeLa Kyoto [3]; cell cycle stage: mitosis) | thermal stability score (HeLa Kyoto [4]; [5]) | thermal stability score (HeLa Kyoto [4]; cell cycle stage: mitosis)
MAPQVWRRRTLERCLTEVGKATGRPECFLTIQEGLASKFTSLTKVLYDFNKILENGRIHGSPLQKLVIENFDDEQIWQQLELQNEPILQYFQNAVSETINDEDISLLPESEEQEREEDGSEIEADDKEDLEDLEEEEVSDMGNDDPEMGERAENSSKSDLRKSPVFSDEDSDLDFDISKLEQQSKVQNKGQGKPREKSIVDDKFFKLSEMEAYLENIEKEEERKDDNDEEEEDIDFFEDIDSDEDEGGLFGSKKLKSGKSSRNLKYKDFFDPVESDEDITNVHDDELDSNKEDDEIAEEEAEELSISETDEDDDLQENEDNKQHKESLKRVTFALPDDAETEDTGVLNVKKNSDEVKSSFEKRQEKMNEKIASLEKELLEKKPWQLQGEVTAQKRPENSLLEETLHFDHAVRMAPVITEETTLQLEDIIKQRIRDQAWDDVVRKEKPKEDAYEYKKRLTLDHEKSKLSLAEIYEQEYIKLNQQKTAEEENPEHVEIQKMMDSLFLKLDALSNFHFIPKPPVPEIKVVSNLPAITMEEVAPVSVSDAALLAPEEIKEKNKAGDIKTAAEKTATDKKRERRKKKYQKRMKIKEKEKRRKLLEKSSVDQAGKYSKTVASEKLKQLTKTGKASFIKDEGKDKALKSSQAFFSKLQDQVKMQINDAKKTEKKKKKRQDISVHKLKL [MPHOSPH10] | -2.07 | 1.06 | 52.4 °C | 52.4 °C | 3.5 | 1.06
MAPRLCSISVTARRLLGGPGPRAGDVASAAAARFYSKDNEGSWFRSLFVHKVDPRKDAHSTLLSKKETSNLYKIQFHNVKPEYLDAYNSLTEAVLPKLHLDEDYPCSLVGNWNTWYGEQDQAVHLWRFSGGYPALMDCMNKLKNNKEYLEFRRERSQMLLSRRNQLLLEFSFWNEPQPRMGPNIYELRTYKLKPGTMIEWGNNWARAIKYRQENQEAVGGFFSQIGELYVVHHLWAYKDLQSREETRNAAWRKRGWDENVYYTVPLVRHMESRIMIPLKISPLQ [NIPSNAP1] | 0.0548 | -0.0766 | 53.9 °C | 54.3 °C | -0.403 | -2.28
MAPSSPRPALPALLVLLGALFPGPGNAQTSVSPSKVILPRGGSVLVTCSTSCDQPKLLGIETPLPKKELLLPGNNRKVYELSNVQEDSQPMCYSNCPDGQSTAKTFLTVYWTPERVELAPLPSWQPVGKNLTLRCQVEGGAPRANLTVVLLRGEKELKREPAVGEPAEVTTTVLVRRDHHGANFSCRTELDLRPQGLELFENTSAPYQLQTFVLPATPPQLVSPRVLEVDTQGTVVCSLDGLFPVSEAQVHLALGDQRLNPTVTYGNDSFSAKASVSVTAEDEGTQRLTCAVILGNQSQETLQTVTIYSFPAPNVILTKPEVSEGTEVTVKCEAHPRAKVTLNGVPAQPLGPRAQLLLKATPEDNGRSFSCSATLEVAGQLIHKNQTRELRVLYGPRLDERDCPGNWTWPENSQQTPMCQAWGNPLPELKCLKDGTFPLPIGESVTVTRDLEGTYLCRARSTQGEVTRKVTVNVLSPRYEIVIITVVAAAVIMGTAGLSTYLYNRQRKIKKYRLQQAQKGTPMKPNTQATPP [ICAM1] | 0.303 | 0.0971 | 56.7 °C | 58.8 °C | -2.15 | -2.19
MAPVGGGGRPVGGPARGRLLLAAPVLLVLLWALGARGQGSPQQGTIVGMRLASCNKSCGTNPDGIIFVSEGSTVNLRLYGYSLGNISSNLISFTEVDDAETLHKSTSCLELTKDLVVQQLVNVSRGNTSGVLVVLTKFLRRSESMKLYALCTRAQPDGPWLKWTDKDSLLFMVEEPGRFLPLWLHILLITVLLVLSGIFSGLNLGLMALDPMELRIVQNCGTEKERRYARKIEPIRRKGNYLLCSLLLGNVLVNTSLTILLDNLIGSGLMAVASSTIGIVIFGEILPQALCSRHGLAVGANTILLTKFFMLLTFPLSFPISKLLDFFLGQEIRTVYNREKLMEMLKVTEPYNDLVKEELNMIQGALELRTKTVEDIMTQLQDCFMIRSDAILDFNTMSEIMESGYTRIPVFEDEQSNIVDILYVKDLAFVDPDDCTPLKTITRFYNHPVHFVFHDTKLDAMLEEFKKGKSHLAIVQKVNNEGEGDPFYEVLGLVTLEDVIEEIIKSEILDESDMYTDNRSRKRVSEKNKRDFSAFKDADNELKVKISPQLLLAAHRFLATEVSQFSPSLISEKILLRLLKYPDVIQELKFDEHNKYYARHYLYTRNKPADYFILILQGKVEVEAGKENMKFETGAFSYYGTMALTSVPSDRSPAHPTPLSRSASLSYPDRTDVSTAATLAGSSNQFGSSVLGQYISDFSVRALVDLQYIKITRQQYQNGLLASRMENSPQFPIDGCTTHMENLAEKSELPVVDETTTLLNERNSLLHKASHENAI [CNNM4] | -0.12 | -0.0459 | 51.7 °C | 52.1 °C | -0.56 | -0.485
MAQAGVVGEVTQVLCAAGGALELPELRRRLRMGLSADALERLLRQRGRFVVAVRAGGAAAAPERVVLAASPLRLCRAHQGSKPGCVGLCAQLHLCRFMVYGACKFLRAGKNCRNSHSLTTEHNLSVLRTHGVDHLSYNELCQLLFQNDPWLLPEICQHYNKGDGPHGSCAFQKQCIKLHICQYFLQGECKFGTSCKRSHDFSNSENLEKLEKLGMSSDLVSRLPTIYRNAHDIKNKSSAPSRVPPLFVPQGTSERKDSSGSVSPNTLSQEEGDQICLYHIRKSCSFQDKCHRVHFHLPYRWQFLDRGKWEDLDNMELIEEAYCNPKIERILCSESASTFHSHCLNFNAMTYGATQARRLSTASSVTKPPHFILTTDWIWYWSDEFGSWQEYGRQGTVHPVTTVSSSDVEKAYLAYCTPGSDGQAATLKFQAGKHNYELDFKAFVQKNLVYGTTKKVCRRPKYVSPQDVTTMQTCNTKFPGPKSIPDYWDSSALPDPGFQKITLSSSSEEYQKVWNLFNRTLPFYFVQKIERVQNLALWEVYQWQKGQMQKQNGGKAVDERQLFHGTSAIFVDAICQQNFDWRVCGVHGTSYGKGSYFARDAAYSHHYSKSDTQTHTMFLARVLVGEFVRGNASFVRPPAKEGWSNAFYDSCVNSVSDPSIFVIFEKHQVYPEYVIQYTTSSKPSVTPSILLALGSLFSSRQ [PARP12] | -0.201 | -0.0418 | 49.2 °C | 48.1 °C | 1.19 | 1.46
MAQALSEEEFQRMQAQLLELRTNNYQLSDELRKNGVELTSLRQKVAYLDKEFSKAQKALSKSKKAQEVEVLLSENEMLQAKLHSQEEDFRLQNSTLMAEFSKLCSQMEQLEQENQQLKEGAAGAGVAQAGPLVDGELLRLQAENTALQKNVAALQERYGKEAGKFSAVSEGQGDPPGGLAPTVLAPMPLAEVELKWEMEKEEKRLLWEQLQGLESSKQAETSRLQEELAKLSEKLKKKQESFCRLQTEKETLFNDSRNKIEELQQRKEADHKAQLARTQKLQQELEAANQSLAELRDQRQGERLEHAAALRALQDQVSIQSADAQEQVEGLLAENNALRTSLAALEQIQTAKTQELNMLREQTTGLAAELQQQQAEYEDLMGQKDDLNSQLQESLRANSRLLEQLQEIGQEKEQLTQELQEARKSAEKRKAMLDELAMETLQEKSQHKEELGAVRLRHEKEVLGVRARYERELRELHEDKKRQEEELRGQIREEKARTRELETLQQTVEELQAQVHSMDGAKGWFERRLKEAEESLQQQQQEQEEALKQCREQHAAELKGKEEELQDVRDQLEQAQEERDCHLKTISSLKQEVKDTVDGQRILEKKGSAALKDLKRQLHLERKRADKLQERLQDILTNSKSRSGLEELVLSEMNSPSRTQTGDSSSISSFSYREILREKESSAVPARSLSSSPQAQPPRPAELSDEEVAELFQRLAETQQEKWMLEEKVKHLEVSSASMAEDLCRKSAIIETYVMDSRIDVSVAAGHTDRSGLGSVLRDLVKPGDENLREMNKKLQNMLEEQLTKNMHLHKDMEVLSQEIVRLSKECVGPPDPDLEPGETS [GRIPAP1] | 0.476 | -0.112 | 49.3 °C | 49.8 °C | 0.674 | -0.142
MAQESPKNSAAEIPVTSNGEVDDSREHSFNRDLKHSLPSGLGLSETQITSHGFDNTKEGVIEAGAFQGSPAPPLPSVMSPSRVAASRLAQQGSDLIVPAGGQRTQTKSGPVILADEIKNPAMEKLELVRKWSLNTYKCTRQIISEKLGRGSRTVDLELEAQIDILRDNKKKYENILKLAQTLSTQLFQMVHTQRQLGDAFADLSLKSLELHEEFGYNADTQKLLAKNGETLLGAINFFIASVNTLVNKTIEDTLMTVKQYESARIEYDAYRTDLEELNLGPRDANTLPKIEQSQHLFQAHKEKYDKMRNDVSVKLKFLEENKVKVLHNQLVLFHNAIAAYFAGNQKQLEQTLKQFHIKLKTPGVDAPSWLEEQ [ARFIP1] | 0.623 | -0.00419 | 51.2 °C | 50.9 °C | -0.0158 | 0.558
MAQLGKLLKEQKYDRQLRLWGDHGQEALESAHVCLINATATGTEILKNLVLPGIGSFTIIDGNQVSGEDAGNNFFLQRSSIGKNRAEAAMEFLQELNSDVSGSFVEESPENLLDNDPSFFCRFTVVVATQLPESTSLRLADVLWNSQIPLLICRTYGLVGYMRIIIKEHPVIESHPDNALEDLRLDKPFPELREHFQSYDLDHMEKKDHSHTPWIVIIAKYLAQWYSETNGRIPKTYKEKEDFRDLIRQGILKNENGAPEDEENFEEAIKNVNTALNTTQIPSSIEDIFNDDRCINITKQTPSFWILARALKEFVAKEGQGNLPVRGTIPDMIADSGKYIKLQNVYREKAKKDAAAVGNHVAKLLQSIGQAPESISEKELKLLCSNSAFLRVVRCRSLAEEYGLDTINKDEIISSMDNPDNEIVLYLMLRAVDRFHKQQGRYPGVSNYQVEEDIGKLKSCLTGFLQEYGLSVMVKDDYVHEFCRYGAAEPHTIAAFLGGAAAQEVIKIITKQFVIFNNTYIYSGMSQTSATFQL [NAE1] | 0.0839 | -0.191 | 51.5 °C | 51.3 °C | 0.0621 | 0.146
MAQVEKRGGLLRKSSASKKPLKEKVVLMYDEIFMTEDPSKCSPRFWEELFLMKVNLEYLEGKLESLDGEELMKIKDNINCLFQHCIQALGEEHPIRVVNALQTLCALIRGVHQKNKSTSGFDIINMLMGFDKAELCMKNLMESLDSLLCAEGSESLKSLCLKLLLCLVTVTDNISQNTILEYVMINSIFEAILQILSHPPSRREHGYDAVVLLALLVNYRKYESVNPYIVKLSIVDDEATLNGMGLVIAQALSEYNRQYKDKEEEHQSGFFSALTNMVGSMFIADAHEKISVQTNEAILLALYEAVHLNRNFITVLAQSHPEMGLVTTPVSPAPTTPVTPLGTTPPSSDVISSVELPLDADVQTSNLLITFLKYSSIVMQDTKDEHRLHSGKLCLIILTCIAEDQYANAFLHDDNMNFRVNLHRMPMRHRKKAADKNLPCRPLVCAVLDLMVEFIVTHMMKEFPMDLYIRCIQVVHKLLCYQKKCRVRLHYTWRELWSALINLLKFLMSNETVLLAKHNIFTLALMIVNLFNMFITYGDTFLPTPSSYDELYYEIIRMHQSFDNLYSMVLRLSTNAGQWKEAASKVTHALVNIRAIINHFNPKIESYAAVNHISQLSEEQVLEVVRANYDTLTLKLQDGLDQYERYSEQHKEAAFFKELVRSISTNVRRNLAFHTLSQEVLLKEFSTIS [C10ORF76] | -0.113 | -0.122 | 54.1 °C | 55.3 °C | -0.1 | -1.32
MAREMTILGSAVLTLLLAGYLAQQYLPLPTPKVIGIDLGTTYCSVGVFFPGTGKVKVIPDENGHISIPSMVSFTDNDVYVGYESVELADSNPQNTIYDAKRFIGKIFTAEELEAEIGRYPFKVLNKNGMVEFSVTSNETITVSPEYVGSRLLLKLKEMAEAYLGMPVANAVISVPAEFDLKQRNSTIEAANLAGLKILRVINEPTAAAMAYGLHKADVFHVLVIDLGGGTLDVSLLNKQGGMFLTRAMSGNNKLGGQDFNQRLLQYLYKQIYQTYGFVPSRKEEIHRLRQAVEMVKLNLTLHQSAQLSVLLTVEEQDRKEPHSSDTELPKDKLSSADDHRVNSGFGRGLSDKKSGESQVLFETEISRKLFDTLNEDLFQKILVPIQQVLKEGHLEKTEIDEVVLVGGSTRIPRIRQVIQEFFGKDPNTSVDPDLAVVTGVAIQAGIDGGSWPLQVSALEIPNKHLQKTNFN [HSPA13] | 0.088 | 0.00641 | 54.6 °C | 53.3 °C | 4.12 | 4.92
